The record followed here is patent WO2024071112A1 (dated 2024).

For the experiment, the target named is T1, human plasminogen (human, UniProt P00747 20-810, limits assumed).
T1 construct: also called Plg
In words: ELISA, plate-coated human plasminogen, His-tagged VK and VH peptides bridged and detected by rabbit anti-His tag IgG and HRP anti-rabbit IgG, A450. (In general: In an ELISA, binding on a coated surface is turned into a signal by an enzyme label.)

T1 sequence (P00747 20-810 limits assumed): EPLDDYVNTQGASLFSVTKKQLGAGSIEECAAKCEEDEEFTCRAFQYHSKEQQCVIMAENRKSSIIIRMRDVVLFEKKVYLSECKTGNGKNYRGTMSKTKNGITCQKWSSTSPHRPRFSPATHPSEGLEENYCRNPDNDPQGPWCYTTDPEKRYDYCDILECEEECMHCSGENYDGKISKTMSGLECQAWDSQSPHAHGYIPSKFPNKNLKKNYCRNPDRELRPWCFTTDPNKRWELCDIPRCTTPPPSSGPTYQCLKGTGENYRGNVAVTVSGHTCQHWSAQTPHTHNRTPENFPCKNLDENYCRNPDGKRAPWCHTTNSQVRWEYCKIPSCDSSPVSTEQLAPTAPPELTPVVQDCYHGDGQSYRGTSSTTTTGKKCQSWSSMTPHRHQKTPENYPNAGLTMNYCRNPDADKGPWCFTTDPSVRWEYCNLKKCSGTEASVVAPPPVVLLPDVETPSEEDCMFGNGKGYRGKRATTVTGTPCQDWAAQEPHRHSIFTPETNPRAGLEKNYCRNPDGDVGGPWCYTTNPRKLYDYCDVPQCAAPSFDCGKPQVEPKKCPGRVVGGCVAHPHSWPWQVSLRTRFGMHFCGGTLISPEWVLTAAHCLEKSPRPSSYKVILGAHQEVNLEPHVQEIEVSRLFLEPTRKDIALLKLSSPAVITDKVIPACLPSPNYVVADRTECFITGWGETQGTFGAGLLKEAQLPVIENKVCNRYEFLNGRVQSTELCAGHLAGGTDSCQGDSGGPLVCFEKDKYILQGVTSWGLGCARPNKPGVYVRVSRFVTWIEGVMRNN

B1: VKc4+VHc1 (His-tagged VKc4 domain peptide combined with His-tagged VHc1 domain peptide) (other)
VL: RSDILMTQSPSSMSVSLGDTVSITCHASQGISSNIGWLQQKPGKSFKGLIYHGTNLEDGVPSRFSGSGSGADYSLTITSLESEDFADYYCVQYAQFPWTFGGGTKLEIKDIPWQGLNDIFEAQKIEWHGSHHHHHH
VH: RSEVQLQQSGAELVKPGASVKLSCTASGFNIKDYYMHWVKQRTEQGLEWIGRIDPEDGETKYAPKFQGKATITADTSSNTAYLQLSSLTSEDTAVYYCAPLLGREDYWGQGTTLTVSSDIPWQGLNDIFEAQKIEWHGSHHHHHH
notes: Two separate His-tagged mouse variable domain peptides made in E. coli (crude lysis supernatant), not covalently linked; in the ELISA they are bridged by polyclonal rabbit anti-His tag IgG; also called Kc4Hc1
Turning to B1, the binding result was “binds”.
